Reference: the supplement of paper PMC10724198
± gives the standard deviation of the averaged measurements.

Assays:
[1] = system: Saccharomyces cerevisiae; assay: protein stability index of tFT-peptide fusion (C-terminal peptide) (PSI (0-1 scale)); higher = more stable (slower turnover)
Protocol: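 MPS profiling in S. cerevisiae of the tFT-X12 degron library: putative degron peptides plus stable controls, 12 aa, fused to the C-terminus of a sfGFP-mCherry timer. Cells are FACS-sorted into 8 mCherry/sfGFP bins and deep-sequenced. PSI runs from 0 (unstable) to 1 (stable). Backgrounds are wild type, das1Δ and doa10Δ at 30 °C, and wild type, das1Δ, cdc34-1 and cdc53-1 at 37 °C; 2-3 technical replicates each.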

[2] = system: Saccharomyces cerevisiae; assay: as above; conditions: genetic background: wild type; temperature: 30 C
[3] = genetic background: cdc34-1, temperature: 37 C
[4] = genetic background: cdc53-1, temperature: 37 C
[5] = genetic background: das1 deletion, temperature: 30 C
[6] = genetic background: das1 deletion, temperature: 37 C
[7] = genetic background: doa10 deletion, temperature: 30 C
[8] = genetic background: wild type, temperature: 30 C
[9] = genetic background: wild type, temperature: 37 C
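Also: PSI is a weighted mean of sequencing reads over stability bins, variants kept only with over 10 reads, mCherry proximal and sfGFP distal, peptide attached via GGGS linker.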

| Sequence | protein stability index [1, 3] | protein stability index [1, 4] | protein stability index [1, 5] | protein stability index [1, 6] | protein stability index [1, 7] | protein stability index [1, 8] | protein stability index [1, 9] | protein stability index [2] |
| --- | --- | --- | --- | --- | --- | --- | --- | --- |
| DMWYLLWRVCYI | 0.51263 ± 0.00047 | 0.549 ± 0.056 | 0.43 ± 0.022 | 0.582 ± 0.02 | 0.37 ± 0.02 | 0.409 ± 0.026 | 0.56 ± 0.01 | 0.48 ± 0.028 |
| EGALSGGGKTSG | 0.643 ± 0.045 | 0.719 ± 0.019 | 0.634 ± 0.016 | 0.7181 ± 0.0047 | 0.636 ± 0.014 | 0.631 ± 0.012 | 0.692 ± 0.018 | 0.651 ± 0.24 |
| EKIIVAVLFVVP | 0.354 ± 0.032 | 0.482 ± 0.054 | 0.305 ± 0.02 | 0.504 ± 0.012 | 0.281 ± 0.0051 | 0.302 ± 0.02 | 0.439 ± 0.02 | 0.437 ± 0.043 |
| ENKGGNQKRRKK | 0.686 ± 0.048 | 0.743 ± 0.056 | 0.628 ± 0.056 | 0.736 ± 0.012 | 0.646 ± 0.014 | 0.635 ± 0.021 | 0.698 ± 0.035 | 0.559 ± 0.18 |
| EQMRRYILVSYV | 0.522 ± 0.021 | 0.609 ± 0.025 | 0.427 ± 0.019 | 0.5998 ± 0.0036 | 0.198 ± 0.0082 | 0.243 ± 0.02 | 0.4255 ± 0.0019 | 0.352 ± 0.033 |
| ERFRLYFRPGIF | 0.635 ± 0.036 | 0.7213 ± 0.00075 | 0.653 ± 0.031 | 0.709 ± 0.021 | 0.296 ± 0.03 | 0.332 ± 0.015 | 0.58 ± 0.008 | 0.234 ± 0.091 |
| ESCWVSRVGVCR | 0.685 ± 0.03 | 0.731 ± 0.038 | 0.649 ± 0.062 | 0.7347 ± 0.0049 | 0.588 ± 0.0086 | 0.608 ± 0.01 | 0.687 ± 0.018 | 0.694 ± 0.076 |
| EVTRMLRVVREI | 0.689 ± 0.035 | 0.761 ± 0.032 | 0.631 ± 0.026 | 0.768 ± 0.016 | 0.322 ± 0.0093 | 0.38 ± 0.032 | 0.588 ± 0.02 | 0.456 ± 0.065 |
| EWLITLRKCGVA | 0.606 ± 0.03 | 0.613 ± 0.011 | 0.478 ± 0.026 | 0.6107 ± 0.006 | 0.397 ± 0.0075 | 0.423 ± 0.027 | 0.533 ± 0.006 | 0.463 ± 0.048 |
| EWRPYKRNKQSS | 0.63 ± 0.011 | 0.759 ± 0.053 | 0.638 ± 0.028 | 0.755 ± 0.023 | 0.223 ± 0.016 | 0.211 ± 0.028 | 0.4112 ± 0.0037 | 0.353 ± 0.13 |
| EWVGIFRGVSVF | 0.2846 ± 0.0011 | 0.293 ± 0.0067 | 0.256 ± 0.032 | 0.4158 ± 0.003 | 0.224 ± 0.02 | 0.267 ± 0.022 | 0.374 ± 0.0073 | 0.371 ± 0.0074 |
| FAKRVARVAREH | 0.677 ± 0.052 | 0.725 ± 0.018 | 0.6452 ± 0.0051 | 0.726 ± 0.012 | 0.17 ± 0.024 | 0.219 ± 0.0058 | 0.383 ± 0.014 | 0.33 ± 0.021 |
| FALFLFFGPLIV | 0.435 ± 0.066 | 0.486 ± 0.012 | 0.301 ± 0.056 | 0.52344 ± 0.00026 | 0.335 ± 0.019 | 0.331 ± 0.011 | 0.4857 ± 0.0017 | 0.4287 ± 0.0032 |
| FASFLFFCYIIF | 0.124 ± 0.042 | 0.118 ± 0.0078 | 0.192 ± 0.034 | 0.2631 ± 0.00071 | 0.24 ± 0.022 | 0.154 ± 0.04 | 0.213 ± 0.018 | 0.197 ± 0.0022 |
| FCCFFPFLWRVF | 0.593 ± 0.028 | 0.609 ± 0.034 | 0.541 ± 0.013 | 0.663 ± 0.017 | 0.317 ± 0.009 | 0.322 ± 0.016 | 0.455 ± 0.0052 | 0.378 ± 0.018 |
| FCFYLLFLGFTR | 0.475 ± 0.035 | 0.512 ± 0.042 | 0.364 ± 0.027 | 0.546 ± 0.053 | 0.37 ± 0.01 | 0.324 ± 0.018 | 0.523 ± 0.029 | 0.431 ± 0.011 |
| FCLFFFPSLFFF | 0.57 ± 0.11 | 0.538 ± 0.024 | 0.529 ± 0.042 | 0.604 ± 0.023 | 0.333 ± 0.012 | 0.295 ± 0.026 | 0.443 ± 0.017 | 0.371 ± 0.016 |
| FCRLCYLLLFCC | 0.37 ± 0.044 | 0.414 ± 0.012 | 0.404 ± 0.025 | 0.531 ± 0.022 | 0.211 ± 0.0056 | 0.196 ± 0.016 | 0.20208 ± 0.0002 | 0.254 ± 0.022 |
| FELVWLCIIGAL | 0.415 ± 0.012 | 0.507 ± 0.031 | 0.331 ± 0.031 | 0.516 ± 0.01 | 0.106 ± 0.0082 | 0.122 ± 0.019 | 0.2271 ± 0.0017 | 0.173 ± 0.04 |
| FFCFFWLFHWFG | 0.512 ± 0.012 | 0.566 ± 0.022 | 0.485 ± 0.016 | 0.5875 ± 0.0025 | 0.4643 ± 0.0022 | 0.451 ± 0.015 | 0.5356 ± 0.0044 | 0.443 ± 0.028 |

| Sequence | protein stability index [1, 3] | protein stability index [1, 4] | protein stability index [1, 5] | protein stability index [1, 6] | protein stability index [1, 7] | protein stability index [1, 8] | protein stability index [1, 9] | protein stability index [2] |
| --- | --- | --- | --- | --- | --- | --- | --- | --- |
| FFCSLIISRFLL | 0.542 ± 0.035 | 0.608 ± 0.014 | 0.511 ± 0.018 | 0.62 ± 0.02 | 0.139 ± 0.012 | 0.168 ± 0.033 | 0.299 ± 0.0054 | 0.214 ± 0.04 |
| FFFFFIHFLCYF | 0.239 ± 0.019 | 0.208 ± 0.0039 | 0.249 ± 0.034 | 0.383 ± 0.021 | 0.288 ± 0.0065 | 0.239 ± 0.047 | 0.357 ± 0.0053 | 0.31 ± 0.035 |
| FFFFFLLFFLRV | 0.229 ± 0.027 | 0.247 ± 0.007 | 0.303 ± 0.046 | 0.343 ± 0.018 | 0.313 ± 0.005 | 0.233 ± 0.018 | 0.313 ± 0.0043 | 0.303 ± 0.04 |
| FFFFLVPVHCVI | 0.261 ± 0.029 | 0.371 ± 0.028 | 0.261 ± 0.035 | 0.452 ± 0.021 | 0.239 ± 0.023 | 0.249 ± 0.024 | 0.406 ± 0.018 | 0.358 ± 0.02 |
| FFFFSVHLSFLD | 0.122 ± 0.0052 | 0.295 ± 0.018 | 0.178 ± 0.04 | 0.365 ± 0.029 | 0.179 ± 0.0073 | 0.176 ± 0.028 | 0.305 ± 0.024 | 0.31 ± 0.013 |
| FFFLILFPLSYS | 0.4518 ± 0.0042 | 0.526 ± 0.044 | 0.376 ± 0.028 | 0.5472 ± 0.0028 | 0.3517 ± 0.0033 | 0.372 ± 0.0098 | 0.513 ± 0.041 | 0.49 ± 0.072 |
| FFFLVRLCRLCV | 0.478 ± 0.043 | 0.558 ± 0.02 | 0.46 ± 0.019 | 0.575 ± 0.025 | 0.266 ± 0.0098 | 0.261 ± 0.011 | 0.353 ± 0.0078 | 0.292 ± 0.055 |
| FFIMFFDFWGYF | 0.378 ± 0.01 | 0.462 ± 0.021 | 0.335 ± 0.023 | 0.624 ± 0.075 | 0.319 ± 0.0034 | 0.373 ± 0.047 | 0.57 ± 0.028 | 0.447 ± 0.079 |
| FFLRFGLFLFTL | 0.491 ± 0.0061 | 0.5109 ± 0.004 | 0.429 ± 0.017 | 0.564 ± 0.0091 | 0.4004 ± 0.0018 | 0.367 ± 0.05 | 0.4928 ± 0.0041 | 0.421 ± 0.049 |
| FFSCFFFSVLYR | 0.2699 ± 0.00059 | 0.214 ± 0.018 | 0.302 ± 0.042 | 0.425 ± 0.031 | 0.469 ± 0.022 | 0.302 ± 0.029 | 0.384 ± 0.018 | 0.377 ± 0.035 |
| FFVYRFFSLSVC | 0.146 ± 0.0021 | 0.209 ± 0.0047 | 0.13 ± 0.032 | 0.247 ± 0.0028 | 0.0301 ± 0.0028 | 0.0256 ± 0.0079 | 0.0647 ± 0.011 | 0.07222 ± 0.00031 |
| FGCCLYFCFWGL | 0.455 ± 0.0063 | 0.519 ± 0.011 | 0.386 ± 0.026 | 0.524 ± 0.0085 | 0.3524 ± 0.0025 | 0.372 ± 0.018 | 0.491 ± 0.016 | 0.433 ± 0.005 |
| FHLVIYWCVRGP | 0.337 ± 0.013 | 0.453 ± 0.088 | 0.299 ± 0.035 | 0.45 ± 0.0086 | 0.2623 ± 0.0021 | 0.281 ± 0.053 | 0.474 ± 0.034 | 0.428 ± 0.034 |
| FICYDRILTVYY | 0.479 ± 0.0097 | 0.564 ± 0.045 | 0.394 ± 0.029 | 0.524 ± 0.026 | 0.369 ± 0.043 | 0.368 ± 0.024 | 0.489 ± 0.031 | 0.454 ± 0.034 |
| FIVVSFCFFLFF | 0.331 ± 0.06 | 0.382 ± 0.0069 | 0.301 ± 0.023 | 0.4351 ± 0.0036 | 0.31 ± 0.03 | 0.263 ± 0.045 | 0.414 ± 0.013 | 0.343 ± 0.067 |
| FKFGVFDFRFLC | 0.451 ± 0.063 | 0.686 ± 0.031 | 0.623 ± 0.011 | 0.7617 ± 0.0049 | 0.0716 ± 0.0051 | 0.0879 ± 0.036 | 0.115 ± 0.031 | 0.109 ± 0.06 |
| FLFFLFVVFVFV | 0.256 ± 0.041 | 0.35 ± 0.046 | 0.305 ± 0.022 | 0.379 ± 0.0046 | 0.323 ± 0.015 | 0.286 ± 0.013 | 0.3692 ± 0.0023 | 0.41 ± 0.07 |
| FLFFRFLVGCCF | 0.406 ± 0.0083 | 0.396 ± 0.0095 | 0.339 ± 0.032 | 0.4545 ± 0.0039 | 0.29943 ± 0.00022 | 0.311 ± 0.0085 | 0.427 ± 0.017 | 0.3731 ± 0.003 |
| FLIFFVCLFRWK | 0.185 ± 0.0059 | 0.243 ± 0.0062 | 0.231 ± 0.023 | 0.3191 ± 0.0023 | 0.21 ± 0.025 | 0.235 ± 0.029 | 0.301 ± 0.0041 | 0.328 ± 0.0066 |
